The text below walks through data of PMC4684078.

This assay concerns the target mCherry-p62 delta PB1 (recombinant) (human). The assay can be described thus: SEC-MALS; size exclusion chromatography with static light scattering (Superdex 200 10/300, MiniDawn Treos); 25 mM HEPES pH 7.5, 500 mM NaCl, 1 mM DTT. In general terms: Size exclusion chromatography separates by hydrodynamic size, large species first.

As to “mCherry-p62 delta PB1 (recombinant) (domain or fragment)”, the stoichiometry N (in general, a count of units in the complex or per binding partner) is 3.
